This is an account of results in IntAct's records for PubMed 19624469.

To fix the notation:
B1: Protein phosphatase 2C 16 (Arabidopsis thaliana (Mouse-ear cress)), Q9CAJ0 (parent)
chain: MEEMTPAVAMTLSLAANTMCESSPVEITQLKNVTDAADLLSDSENQSFCNGGTECTMEDVSELEEVGEQDLLKTLSDTRSGSSNVFDEDDVLSVVEDNSAVISEGLLVVDAGSELSLSNTAMEIDNGRVLATAIIVGESSIEQVPTAEVLIAGVNQDTNTSEVVIRLPDENSNHLVKGRSVYELDCIPLWGTVSIQGNRSEMEDAFAVSPHFLKLPIKMLMGDHEGMSPSLTHLTGHFFGVYDGHGGHKVADYCRDRLHFALAEEIERIKDELCKRNTGEGRQVQWDKVFTSCFLTVDGEIEGKIGRAVVGSSDKVLEAVASETVGSTAVVALVCSSHIVVSNCGDSRAVLFRGKEAMPLSVDHKPDREDEYARIENAGGKVIQWQGARVFGVLAMSRSIGDRYLKPYVIPEPEVTFMPRSREDECLILASDGLWDVMNNQEVCEIARRRILMWHKKNGAPPLAERGKGIDPACQAAADYLSMLALQKGSKDNISIIVIDLKAQRKFKTRT
partner: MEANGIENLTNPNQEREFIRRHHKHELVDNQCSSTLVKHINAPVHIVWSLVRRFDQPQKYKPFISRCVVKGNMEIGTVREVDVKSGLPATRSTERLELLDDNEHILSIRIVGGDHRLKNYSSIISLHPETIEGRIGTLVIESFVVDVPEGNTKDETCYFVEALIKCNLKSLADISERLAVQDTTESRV
B2: Protein phosphatase 2C 16 (Arabidopsis thaliana (Mouse-ear cress)), Q9CAJ0 (parent)
chain: B1 chain
partner: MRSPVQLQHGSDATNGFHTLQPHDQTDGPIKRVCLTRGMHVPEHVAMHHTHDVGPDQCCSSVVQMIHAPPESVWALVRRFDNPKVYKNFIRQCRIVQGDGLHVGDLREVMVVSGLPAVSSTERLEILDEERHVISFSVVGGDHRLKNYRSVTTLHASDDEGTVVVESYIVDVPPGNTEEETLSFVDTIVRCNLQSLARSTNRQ
B3: Protein phosphatase 2C 16 (Arabidopsis thaliana (Mouse-ear cress)), Q9CAJ0 (parent)
chain: B1 chain
partner: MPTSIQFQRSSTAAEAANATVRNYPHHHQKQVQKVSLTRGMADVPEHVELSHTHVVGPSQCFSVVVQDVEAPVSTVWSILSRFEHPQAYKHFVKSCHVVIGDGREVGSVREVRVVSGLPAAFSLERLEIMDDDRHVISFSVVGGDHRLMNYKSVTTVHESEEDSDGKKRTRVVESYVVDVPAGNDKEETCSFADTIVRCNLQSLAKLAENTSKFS
B4: Protein phosphatase 2C 16 (Arabidopsis thaliana (Mouse-ear cress)), Q9CAJ0 (parent)
chain: B1 chain
B5: Protein phosphatase 2C 16 (Arabidopsis thaliana (Mouse-ear cress)), Q9CAJ0 (parent)
chain: B1 chain
partner: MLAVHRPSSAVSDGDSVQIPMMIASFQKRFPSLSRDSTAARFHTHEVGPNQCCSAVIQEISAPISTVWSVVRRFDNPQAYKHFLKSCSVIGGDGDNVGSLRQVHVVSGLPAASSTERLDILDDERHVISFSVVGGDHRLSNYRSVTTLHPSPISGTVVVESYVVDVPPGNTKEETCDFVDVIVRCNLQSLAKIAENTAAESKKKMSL

One experiment covers variants of B1. The following applies: with pyl8_arath PYL8, Q9FGM1.
G246D: the “effect of a mutation on the interaction” value is listed as “disrupting interaction”.

Variants of B2 are the subject of another experiment. The following applies: with pyl5_arath PYL5, Q9FLB1.
As for G246D, the “effect of a mutation on the interaction” value is recorded as “disrupting interaction”.

In another experiment the parent is B3. To be noted: with pyl6_arath PYL6, Q8S8E3.
Take G246D: the “effect of a mutation on the interaction” value is “disrupting interaction”.

The variants in a further experiment derive from B4. To be noted: with pyr1_arath PYR1, O49686.
Consider G246D, for which the “effect of a mutation on the interaction” value is listed as “disrupting interaction”.

In another experiment the parent is B5. The following applies: with pyl4_arath PYL4, O80920.
For G246D, the “effect of a mutation on the interaction” value is listed as “disrupting interaction”.
